Assay [1] deals with secreted alkaline phosphatase with the wild type BACE cleavage site of amyloid precursor and the KDEL sequence (UniProt P05187). Description: cell-based or functional assay.
In assay [2] the target is secreted alkaline phosphatase fused to the Swedish mutation of the BACE cleavage site in APP (…) and the KDEL sequence (UniProt P05187). Briefly: cell-based or functional assay.

Take BACE (beta-site APP-cleaving enzyme): in assay [1], the alkaline phosphatase activity in the conditioned media of transfected neuro-2 cells (chemiluminescence, photons) was 83700 photons and the alkaline phosphatase activity in the conditioned media of transfected neuro-2 cells, percent of control (no KDEL) is 1.6 % of control. In addition, in assay [2], the alkaline phosphatase activity in the conditioned media of transfected neuro-2 cells (chemiluminescence, photons) worked out at 3.46e+06 photons and the efficiency of secretion: alkaline phosphatase activity in the conditioned media of transfected neuro-2 cells, percent of control (no KDEL) was 66 % of control.

The record behind these values is patent US20030147810A1.
